Assay results: the nanobody polyreactivity screen of Harvey et al. (2022)

Experiment: yeast display, Sf9 membrane polyspecificity reagent, FACS + sequencing; frameworks hold sequencing errors
In short: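 Nanobodies from a synthetic yeast display library (Saccharomyces cerevisiae BJ5465), induced 36–48 hours with galactose, were stained 1 hour at 4 °C with 10% biotinylated, detergent-solubilized Sf9 membrane reagent, enriched on streptavidin microbeads, then FACS-sorted. Anti-HA (expression) and streptavidin (reagent binding) fluorescence set low and high (top ~1%) gates. Polyreactivity labels come from the gate of origin. Genes were colony-PCR amplified, MiSeq 2 × 250 sequenced and filtered by CDR length.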

Sequence	polyreactivity (PSR sort gate)
QVQLVESGGGLVQAGGSLRLSCAASGSIFYVYAMGWYRQAPGKERELVAAITNYADSVMGRFTISRDNAKNTVYLQMNSLKPEDTAVYYCAADWWRVEMDYWGLGTQVTVSS	low polyreactivity
QVQLVESGGGLVQAGGSLRLSCAASGSIFYVYAMGWYRQAPGKERELVAAITSSGDTTYYADSVKGRFTISRDNAKNTVYLQMNSLKPEDTAVYYCAKVFGPTDYLTGTFKGDYWGQGTQVTVSS	low polyreactivity
QVQLVESGGGLVQAGGSLRLSCAASGSIFYVYAMGWYRQAPGKERELVAAITWIDGSTYYADSVKGRFTISRDNAKNTVYLQMNSLKPEDTAVYYCAAGGYFYSFYYWGQGTQVTVSS	low polyreactivity
QVQLVESGGGLVQAGGSLRLSCAASGSIFYVYAMGWYRQAPGKERELVADITTRDGDTYYADSVKRRFTISRDNAKNTVYLQMNSLKPEDTAVYYCAADLNAYPLRAYDYWGQGTQVTVSS	low polyreactivity
QVQLVESGGGLVQAGGSLRLSCAASGSIFYVYAMGWYRQAPGKVRELVAAITSSGTTNYADSVKGSFTISRDNAKNTVYLKMNSLKPEDTAVDSCAADPDSGQVPFDYLGQGTQVTVSS	low polyreactivity
QVQLVESGGGLVQAGGSLRLSCAASGSIFYVYAMGWYRQAPGKVRELVATISSSAGSTYYADSVKGRFTISRDNAKNTVYLQMNSLKPEDTAVYYCIADSFLSWVYRYVYYGSAYWGQGSQVTVSS	low polyreactivity
QVQLVESGGGLVQAGGSLRLSCAASGSIFYVYAMGWYRQAPGNERELVAVIRRGGSTKYADSVKGRFTISRDNAKNTVYLQMNSLKPEDTAVYYCNVVGYAYGWQYDYWGQGTQVTVSS	high polyreactivity
QVQLVESGGGLVQAGGSLRLSCAASGSIFYWNAMGWYRQAPGKDREFVAAISRSGGSTYYADSVKGRFTISRDNGKNTVYLQMYSLKPEDTAVYFCAADVFYFTYDYWGQCTQVTVSS	low polyreactivity
QVQLVESGGGLVQAGGSLRLSCAASGSIFYWNAMGWYRQAPGKERELVAAISYNGGSTYYADSVKGRFTISRDNAKNTVYLQMNSLKPEDTAVYYCARLDSAAEPRQYDYWGQGTQVTVSS	high polyreactivity
QVQLVESGGGLVQAGGSLRLSCAASGSIFYYAMGWYRQAPGKERELVAAITWRGGRTYYADSVKGRFTISRDNAKNTVYLQMNSLKPEDTAVYYCNAVAPGKYNHWGQGTQVTVSS	high polyreactivity
QVQLVESGGGLVQAGGSLRLSCAASGSIFYYNAMGWNRQAPGKERELVAASTTRGGSTYYADSVKGRFTISRDNAKNTVYLQMYSLKPVDTEVYYCARSSRGKLDYWGQGTQVTVSS	low polyreactivity
QVQLVESGGGLVQAGGSLRLSCAASGSIFYYNAMGWSRQAPGKERELVAAIRSTGSSNDADSVKGRFTISRDNAKNTVYLQMNSLKPEDTAVYYCAADQYGRSRDYGYGYWGHGTQVTVSS	low polyreactivity
QVQLVESGGGLVQAGGSLRLSCAASGSIFYYNAMGWYIQAPGKEREFVAAISSSGGSTYYADSVMGRFTISRDNAKNNVYLQMYRLKPEDTAVYYCAAKLRHWAHHTKYDYWGQGTQLTVSS	low polyreactivity
QVQLVESGGGLVQAGGSLRLSCAASGSIFYYNTMGWYRQAPGKERELVAAISRSGTSTFYADSVKGRFTISRDYAKNTVYLQMNSLKPEDTAVYYCNAESLGWYRLYTVDYWGQGTQVTVSS	low polyreactivity
QVQLVESGGGLVQAGGSLRLSCAASGSIFYYYAMGWYRPAPGKERELVAAINSSGGNTYYADSVKGRFTISRDNAKNTVYLQMNSLKPEDTAVYYCAAASRSTNYNYWGQGTQVTVSS	high polyreactivity
QVQLVESGGGLVQAGGSLRLSCAASGSIFYYYAMGWYRQAPGKERELVAAINSGVSTYYADSVKGRFTISRDNAKNTVYLQMNSLKPEDTAVYYCAAPGHNLYGSWFSWTPDTYDYWGQGTQVTVSS	low polyreactivity
QVQLVESGGGLVQAGGSLRLSCAASGSIFYYYAMGWYRQAPGKERELVAAINSGVSTYYADSVKGRFTISRDNAKNTVYLQMNSLKPEDTAVYYCDATGHNLYGSWFSWTPDTYDYWGQGTQVTVSS	low polyreactivity
QVQLVESGGGLVQAGGSLRLSCAASGSIFYYYAMGWYRQAPGKERELVAAISKSGGSTYADSVKGRFTISRDNAKNTVYLQMNSLKPEDTAVYYCAATYYYSWYAFNYWGQGTQVTVSS	low polyreactivity
QVQLVESGGGLVQAGGSLRLSCAASGSIFYYYTMGWYRQAPGKERELVAAITWSGGRTYYADSVKGRFTISRDNAKNTVYLQMNSLKPEDTAVYYCNVDPYYGGIGDYWGQGTQVTVSS	high polyreactivity
QVQLVESGGGLVQAGGSLRLSCAASGSIIAANAMGWYRQAPGKERELVAAITFDSGSTHYADSVKGRFTISRDNAKNTFYLQMNSLKPEDTAVYYCAVRDFNSDYDDWGQGTQVTVSS	low polyreactivity
QVQLVESGGGLVQAGGSLRLSCAASGSIIAGYTMGWYRQAPGKERELVAGIRRGGSTNYADSVKGRFTISRDNAKNTVYLQMNSLKPEDTAVYYCAAYYRLDYDYWGQGTQVTVSS	high polyreactivity
QVQLVESGGGLVQAGGSLRLSCAASGSIIARYAMGSYRQAPGKERELVATITRGGSTNYADSVKGRFTISRDNAKNTVYLQMNSLKPEDTAVYYCARTSYGRLDYWGQGTQVTVSS	low polyreactivity

Sequence	polyreactivity (PSR sort gate)
QVQLVESGGGLVQAGGSLRLSCAASGSIIDTYAMGWYRQAPGKERELVASWSGGSTYYADSVKGRFTISRDNAKNTVYLQMNSLKPEDTAVYYCAKDYYVQPPGTRDDYWGQGTQVTVSS	low polyreactivity
QVQLVESGGGLVQAGGSLRLSCAASGSIIDYYARGWYRQAPGKERELVAAISDSGSTYYADSVKGRFTISRDNAKNTVYLQMNSLKPEDTAVYYCAAVLWSPYRSEPLDTYEYWGQGTQVNVSS	low polyreactivity
QVQLVESGGGLVQAGGSLRLSCAASGSIIFVNAMGWYRQAPGKERELVADISSGGSTNYADSVKGRFTISRDNAKNTVYLLMNSLKPEDTAVYYCNTDEPPIYERFPYDYWGQGTQVNVSS	low polyreactivity
QVQLVESGGGLVQAGGSLRLSCAASGSIIGRNAMGWYRQAPGQEREMVAAISTRGGRTYYADSVKGRFTISRDNAKNNDYLQMNSLKPEDTAVYYCAAVGPYRWYDYWGQGTQVTVSS	high polyreactivity
QVQLVESGGGLVQAGGSLRLSCAASGSIIGRYAMGWYRQAPGKERELVAAISKNGGSRYYADSVKGRFTISRDNAKNTVYLQMNSLKPEDTAVYYCNTVRYSCNYRDQEGDYWGQGTQVTVSS	high polyreactivity
QVQLVESGGGLVQAGGSLRLSCAASGSIIGTNVMGWYRQAPGKERELVASISYRDGTTYYADSVKGRFTISRDNAKNTLYLQMNSLKPEDTAVYYCAVANYYSYYWGQGTQVTVSS	low polyreactivity
QVQLVESGGGLVQAGGSLRLSCAASGSIIHSYAMGWYRQAPGKERELVAAISRNGGSTYYADSVKGRFTISRDNAKITVYLQMNSLKPEDTAVYYCAKTYSQTWRYGYWGQGTQVTVSS	high polyreactivity
QVQLVESGGGLVQAGGSLRLSCAASGSIIHYTMGWYRQAPGKERELVAAISKSGGSTYYADSVKGRFTISRDNAKNTVYLQMNSLKPEDTAVYYCAAVGYYAWTFGYDYWGQGTQVTVSS	high polyreactivity
QVQLVESGGGLVQAGGSLRLSCAASGSIIIGNTMGWYRQAPGKERELVATIRRSGSRTYYADSVKGRFTISRDNAKNTVYLQMNSLKPEDTAVYYCAADRLRTSGYKTIYDYWGQGTQVTVSS	low polyreactivity
QVQLVESGGGLVQAGGSLRLSCAASGSIILAYAMGWYRQAPGKERELVAAITGSGGRTYADSVKGRFTISRDNAKNTVYLEMNSLKPEVTAVYYFAAYYYGNWQGYYWGQGTQVIVSS	low polyreactivity
QVQLVESGGGLVQAGGSLRLSCAASGSIIPLYAMGWYRQAPGKERELVAAISRRGGSTYYADSVKGRFTISRDNAKNTVYLQMNSLKPEDTAVYYCAVDTPSPSRGPRFNYWGQGTQVTVSS	high polyreactivity
QVQLVESGGGLVQAGGSLRLSCAASGSIIPLYAMGWYRQAPGKERELVATINRRTGSTYADSVKGRFTISRDNAKNTVYLQMNSLKPEDTAVYYCNAADNYVRFYKTRIYNYWGQGTQVTVSS	high polyreactivity
QVQLVESGGGLVQAGGSLRLSCAASGSIIPYYAMGWYRQAPGKERELVAAISNSGGRTYYADSVKGRFTISRDNAKNTVYLQMNSLKPEDTAVYYCNAVPFYSKYDYWGQGTQVTVSS	high polyreactivity
QVQLVESGGGLVQAGGSLRLSCAASGSIIRGNAMGWYRQAPGKERELVAAISKRGGSTYYADSVKGRFTISRDNAKNTVYLQMNSLKPEDTAVYYCASDLPAALGFDYWGQGTQVTVSS	high polyreactivity
QVQLVESGGGLVQAGGSLRLSCAASGSIIRGYAIGWFRPAPGKERELVAAITSSGGSTYYADSVKGRFTISRDNAKNTVYLQMNSLKPEETAVYYCTKYRYSYKYNYWGQGTQVTVSS	high polyreactivity
QVQLVESGGGLVQAGGSLRLSCAASGSIIRHNVMVWYRQAPGKERELVAAISGGGGRTYYADSVKGRFTISRDNAKNTVSLQMNRLKPEDTAVYYCNAYVGLSEGDYWGQGTQVTVSS	high polyreactivity
QVQLVESGGGLVQAGGSLRLSCAASGSIIRNAMGWYRQAPGKERELVAAINWSGGSTYYADSVKGRFTISRDNAKNTVYLQMNSLKPEDTAVYYCNKVRGTVHATRRNGDYWGQGTQVTVSS	high polyreactivity
QVQLVESGGGLVQAGGSLRLSCAASGSIISFNTMGWYRQPPGKEREFVASIRRRGGSTYYADSVKGRFTISRDNAKNTVYLQMNSLKPEDTAVYYCAKANPHYVISDGVYHPRGGYWGQGTQVTVSS	low polyreactivity
QVQLVESGGGLVQAGGSLRLSCAASGSIISRNAMGWYRQAPGKERELVAAITSSGDSTYYADSVKGRFTISRDNAKNTVYLQMNSLKPEDTAVYYCNARAYRRKRYDYWGQGTQVTVSS	high polyreactivity
QVQLVESGGGLVQAGGSLRLSCAASGSIISWYVMGWYRQAPGKERELVAAITWGGGSRYYADSVKGRFTISRDNAKNTVYLQMNSLKPEDTAVYYCEFDYWGQGTQVSVSS	low polyreactivity
QVQLVESGGGLVQAGGSLRLSCAASGSIISYNAMGWYRQAPGKERELVAGIDLGDGTTYYADSVKGRFTISRDNAKNTVYLQMNSLKPDDTAVYYCNADIQIRPYGYAGTSTDEGLGYWGQGTQVTVSS	low polyreactivity
